Laboratory results published in publication doi:10.1101/2022.04.29.490010 (bioRxiv, 2022).
Where a chain is given by its changes, count along the chain named. Names may count otherwise.

B1: EndoA wild type (Drosophila Endophilin-A, GST tag cleaved) (natural protein, UniProt Q8T390 1-369, looked up)
chain: MAFAGLKKQINKANQYMTEKMGGAEGTKLDMDFMEMERKTDVTVELVEELQLKTKEFLQPNPTARAKMAAVKGISKLSGQAKSNTYPQPEGLLAECMLTYGKKLGEDNSVFAQALVEFGEALKQMADVKYSLDDNIKQNFLEPLHHMQTKDLKEVMHHRKKLQGRRLDFDCKRRRQAKDDEIRGAEDKFGESLQLAQVGMFNLLENDTEHVSQLVTFAEALYDFHSQCADVLRGLQETLQEKRSEAESRPRNEFVPKTLLDLNLDGGGGGLNEDGTPSHISSSASPLPSPMRSPAKSMAVTPQRQQQPCCQALYDFEPENPGELAFKENDIITLLNRVDDNWFEGAVNGRTGYFPQSYVQVQVPLPNGN
B2: EndoA^D265R (Drosophila Endophilin-A D265R, GST tag cleaved) (natural protein, UniProt Q8T390 1-369, looked up)
chain: B1 chain with D265R
B3: EndoA^D265A (Drosophila Endophilin-A D265A, GST tag cleaved) (natural protein, UniProt Q8T390 1-369, looked up)
chain: B1 chain with D265A
B4: ENDOA1^WT (human Endophilin-A1, recombinant, GST tag cleaved) (natural protein, UniProt Q99962 1-352, looked up)
chain: MSVAGLKKQFHKATQKVSEKVGGAEGTKLDDDFKEMERKVDVTSRAVMEIMTKTIEYLQPNPASRAKLSMINTMSKIRGQEKGPGYPQAEALLAEAMLKFGRELGDDCNFGPALGEVGEAMRELSEVKDSLDIEVKQNFIDPLQNLHDKDLREIQHHLKKLEGRRLDFDYKKKRQGKIPDEELRQALEKFDESKEIAESSMFNLLEMDIEQVSQLSALVQAQLEYHKQAVQILQQVTVRLEERIRQASSQPRREYQPKPRMSLEFPTGDSTQPNGGLSHTGTPKPSGVQMDQPCCRALYDFEPENEGELGFKEGDIITLTNQIDENWYEGMLHGHSGFFPINYVEILVALPH
B5: ENDOA1^G276V (human Endophilin-A1 with the Parkinson's disease risk variant G276V, recombinant, GST tag cleaved) (natural protein, UniProt Q99962 1-352, looked up)
chain: B4 chain with G276V

What was measured:
[1] = target: the molecule itself; experiment: SEC-MALS
[2] = target: the molecule itself; experiment: SEC

Protein	stoichiometry N [1]	stoichiometry N [2]
B1	2	
B2	2	
B3	2	
B4		2
B5		2
